Data on one substance can be found in publication PMC5059438.

The target of the test is Ops*, an active form of opsin which is similar to metarhodopsin II (UniProt P02699).

Regarding “Ops*, an active form of opsin which is similar to metarhodopsin II (from UniProt P02699 1-348) (receptor)”, the molar mass of functionally reconstituted scramblase, from the fit of p(≥1 scramblase) versus PPR* (dithionite/NBD-PC scramblase assay on proteoliposomes) was 90800 g/mol.
